Data published in FireProtDB.
Several values for one entry are separate records, joined by “and”; a condition that tells them apart may be missing. Equal values may be shown once.

Settings: whole UniProt chain shown
[1] = Momordica charantia, pH 7.5, 25 °C, GdnHCl, fluorescence, Tris-HCl 10 mM, NaCl 200 mM
[2] = Mus musculus, pH 2, Thermal, DSC, Potassium phosphate 40 mM, reversible: yes
[3] = Mus musculus, pH 2.7, Thermal, DSC, Potassium phosphate 40 mM, reversible: yes
[4] = Mus musculus, pH 7, Thermal, DSC, Potassium phosphate 40 mM, reversible: yes
[5] = Notophthalmus viridescens, pH 7.2, 25 °C, GdnHCl, CD, Phosphate 100 mM
[6] = Pseudomonas aeruginosa (strain ATCC 15692 / DSM 22644 / CIP 104116 / JCM 14847 / LMG 12228 / 1C / PRS 101 / PAO1), pH 7, Thermal, CD, KH2PO4-NaOH 10 mM, reversible: yes
[7] = Nitratidesulfovibrio vulgaris (strain DSM 19637 / Miyazaki F), pH 7, 20 °C, GdnHCl, CD, phosphate 0.1 M, reversible: yes
[8] = Oryctolagus cuniculus, pH 7.4, Thermal, DSC, sodium phosphate 50 mM, reversible: yes
[9] = Manduca sexta, pH 7, 25 °C, GdnHCl, CD, Potassium phosphate 50 mM, reversible: yes

B1: cAMP-dependent protein kinase type I-beta regulatory subunit wild type, P12849 (protein)
chain: MASPSCFHSEDEDSLKGCEMYVQKHGIQQVLKECIVHLCVAKPDRPLRFLREHFEKLEKEENRQILARQKSNSQCDSHDEEISPTPPNPVVKARRRRGGVSAEVYTEEDAVSYVRKVIPKDYKTMTALAKAISKNVLFSHLDDNERSDIFDAMFPVTHIGGETVIQQGNEGDNFYVIDQGEVDVYVNGEWVTNISEGGSFGELALIYGTPRAATVKAKTDLKLWGIDRDSYRRILMGSTLRKRKMYEEFLSKVSILESLEKWERLTVADALEPVQFEDGEKIVVQGEPGDDFYIITEGTASVLQRRSPNEEYVEVGRLGPSDYFGEIALLLNRPRAATVVARGPLKCVKLDRPRFERVLGPCSEILKRNIQRYNSFISLTV
unfolding free energy (Mus musculus, pH 7, 23 °C, GdnHCl, Fluorescence, MOPS 5 mM, KCl 100 mM, reversible: yes): 7.2 kcal/mol | unfolding free energy (Mus musculus, pH 7, 23 °C, Urea, Fluorescence, MOPS 5 mM, KCl 100 mM, reversible: yes): 7 kcal/mol

B2: Lipase B wild type, P41365 (protein)
chain: MKLLSLTGVAGVLATCVAATPLVKRLPSGSDPAFSQPKSVLDAGLTCQGASPSSVSKPILLVPGTGTTGPQSFDSNWIPLSTQLGYTPCWISPPPFMLNDTQVNTEYMVNAITALYAGSGNNKLPVLTWSQGGLVAQWGLTFFPSIRSKVDRLMAFAPDYKGTVLAGPLDALAVSAPSVWQQTTGSALTTALRNAGGLTQIVPTTNLYSATDEIVQPQVSNSPLDSSYLFNGKNVQAQAVCGPLFVIDHAGSLTSQFSYVVGRSALRSTTGQARSADYGITDCNPLPANDLTPEQKVAAAALLAPAAAAIVAGPKQNCEPDLMPYARPFAVGKRTCSGIVTP
Tm (Pseudozyma antarctica, pH 7, Thermal, CD, Tris-HCl 50 mM, reversible: No): 57.7 °C | Tm (Pseudozyma antarctica, pH 7, Thermal, Differential Scanning Fluorimetry, HEPES 10mM): 54.8 °C

B3: Ribonuclease MC wild type, P23540 (protein)
chain: FDSFWFVQQWPPAVCSFQKSGSCPGSGLRTFTIHGLWPQGSGTSLTNCPQGSPFDITKISHLQSQLNTLWPNVLRANNQQFWSHEWTKHGTCSESTFNQAAYFKLAVDMRNNYDIIGALRPHAAGPNGRTKSRQAIKGFLKAKFGKFPGLRCRTDPQTKVSYLVQVVACFAQDGSTLIDCTRDTCGANFIF
denaturant midpoint (higher = more stable) [1]: 2.57 M | unfolding free energy [1]: 13.2 kcal/mol | Tm (Momordica charantia, pH 7.5, Thermal, CD, Tris-HCl 10 mM, NaCl 200 mM): 64.4 °C

B4: Ig gamma-1 chain C region secreted form wild type, P01868 (protein)
chain: AKTTPPSVYPLAPGSAAQTNSMVTLGCLVKGYFPEPVTVTWNSGSLSSGVHTFPAVLQSDLYTLSSSVTVPSSPRPSETVTCNVAHPASSTKVDKKIVPRDCGCKPCICTVPEVSSVFIFPPKPKDVLTITLTPKVTCVVVDISKDDPEVQFSWFVDDVEVHTAQTQPREEQFNSTFRSVSELPIMHQDWLNGKEFKCRVNSAAFPAPIEKTISKTKGRPKAPQVYTIPPPKEQMAKDKVSLTCMITDFFPEDITVEWQWNGQPAENYKNTQPIMNTNGSYFVYSKLNVQKSNWEAGNTFTCSVLHEGLHNHHTEKSLSHSPGK
Tm [2]: 69.3 °C | unfolding enthalpy (calorimetric) [2]: 84 kcal/mol | Tm [3]: 69.5 °C | unfolding enthalpy (calorimetric) [3]: 86.6 kcal/mol | Tm [4]: 70.2 °C | unfolding enthalpy (calorimetric) [4]: 174 kcal/mol

B5: Fibroblast growth factor 1 wild type, Q7SIF8 (protein)
chain: QKPKLLYCSNGGYFLRIFPDGKVDGTRDRSDPYIQLQFYAESVGEVYIKSLETGQYLAMDSDGQLYASQSPSEECLFLERLEENNYNTYKSKVHADKDWFVGIKKNGKTKPGSRTHFGQKAILFLPLPVSSD
denaturant m value [5]: 3.8 kcal/mol/M | denaturant midpoint (higher = more stable) [5]: 1.6 M | unfolding free energy [5]: 6.1 kcal/mol

B6: Cytochrome c-551 wild type, P00099 (protein)
chain: MKPYALLSLLATGTLLAQGAWAEDPEVLFKNKGCVACHAIDTKMVGPAYKDVAAKFAGQAGAEAELAQRIKNGSQGVWGPIPMPPNAVSDDEAQTLAKWVLSQK
Tm [6]: 56 °C | unfolding enthalpy (van 't Hoff) [6]: 39.5 kcal/mol

B7: Cytochrome c-553 wild type, P00120 (protein)
chain: MKRILVVMSICAALAFGVSAAMAADGAALYKSCVGCHGADGSKQAMGVGHAVKGQKADELFKKLKGYADGSYGGEKKAVMTNLVKRYSDEEMKAMADYMSKL
denaturant m value [7]: 2.49 kcal/mol/M and 2.75 kcal/mol/M | denaturant midpoint (higher = more stable) [7]: 3.65 M and 3.91 M | unfolding free energy [7]: 9.08 kcal/mol and 10.8 kcal/mol

B8: Cytochrome b5 wild type, P00169 (protein)
chain: MAAQSDKDVKYYTLEEIKKHNHSKSTWLILHHKVYDLTKFLEEHPGGEEVLREQAGGDATENFEDVGHSTDARELSKTFIIGELHPDDRSKLSKPMETLITTVDSNSSWWTNWVIPAISALIVALMYRLYMADD
unfolding free energy (Oryctolagus cuniculus, pH 7.4, 25 °C, Thermal, DSC, sodium phosphate 50 mM, reversible: yes): 1.7 kcal/mol | Tm [8]: 48.5 °C | heat capacity change of unfolding [8]: 1 kcal/mol/K | unfolding enthalpy (calorimetric) [8]: 35.7 kcal/mol

B9: Apolipophorin-3 wild type, P13276 (protein)
chain: MAAKFVVVLAACVALSHSAMVRRDAPAGGNAFEEMEKHAKEFQKTFSEQFNSLVNSKNTQDFNKALKDGSDSVLQQLSAFSSSLQGAISDANGKAKEALEQARQNVEKTAEELRKAHPDVEKEANAFKDKLQAAVQTTVQESQKLAKEVASNMEETNKKLAPKIKQAYDDFVKHAEEVQKKLHEAATKQ
denaturant m value [9]: 3.65 kcal/mol/M | denaturant midpoint (higher = more stable) [9]: 0.36 M | unfolding free energy [9]: 1.29 kcal/mol | Tm (Manduca sexta, pH 7, Thermal, CD, Potassium phosphate 50 mM, reversible: yes): 52 °C
